T1: FXR-DBD (human, UniProt Q96RI1-1 117-217)
T1 sequence: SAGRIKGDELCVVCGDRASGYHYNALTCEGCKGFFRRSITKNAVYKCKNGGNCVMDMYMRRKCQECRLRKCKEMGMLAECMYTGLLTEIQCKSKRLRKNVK

B1: IR1 (FPA) (dsDNA)
DNA 1: CCGAGGTCAATGACCTCG
DNA 2: CGAGGTCATTGACCTCGG
B2: IR1 (crystal) (dsDNA)
DNA 1: CCGAGGTCAATGACCTCG
DNA 2: CCGAGGTCATTGACCTCG

Tests used:
[1] = target: T1, FXR-DBD; experiment: fluorescence polarization
[2] = target: T2, FXR-DBD;RXR-DBD (human;human, UniProt Q96RI1-1;P19793 117-217;130-212, |); experiment: fluorescence polarization
[3] = target: T2, FXR-DBD;RXR-DBD; experiment: X-ray crystallography

T2 sequence (P19793 130-212, one chain of several): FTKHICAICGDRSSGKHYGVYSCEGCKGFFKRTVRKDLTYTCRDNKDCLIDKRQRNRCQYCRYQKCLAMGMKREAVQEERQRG

| Binder | Kd [1] [nM] | Kd [2] [nM] | binding result [3] |
| --- | --- | --- | --- |
| B1 | 95 | ~54 |  |
| B2 |  |  | binds |
